From doi:10.1101/2023.01.26.525422, “Histone-organized chromatin in bacteria” (bioRxiv, 2023) come the findings set out here.

Series [1] has as its target T1, Bd0055 (Bdellovibrio bacteriovorus HD100, UniProt Q6MRM1 1-64).
T1 sequence: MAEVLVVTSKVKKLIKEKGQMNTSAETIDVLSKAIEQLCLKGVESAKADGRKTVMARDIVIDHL
Kind of series: X-ray crystallography; 10 mM NaCl, 0.1 mM EDTA, 50 mM HEPES pH 7.5; 16:1 protein to DNA; 1 dimer per 2.5 bp; FP/FRET: 10 nM DNA, 10 mM NaCl, 1 mM EDTA, 50 mM HEPES pH 6, RT; EMSA: 1 uM DNA, 10 mM NaCl, 1 mM EDTA, 50 mM HEPES pH 7.5, RT. The settings on record: protein: recombinant; chain copies: 2; blunt.

Series [2] deals with the molecule itself. Kind of series: crystal structure; apo Bd0055; hanging drop, 3.2 M (NH4)2SO4, 100 mM BICINE pH 9; 1.8 Å.

B1: 35 bp DNA (dsDNA)
DNA 1: TCTTGCACTAAGAGCTACTGGAGTGCGTCAGATGT
DNA 2: ACATCTGACGCACTCCAGTAGCTCTTAGTGCAAGA
B1: the binding result in series [1] was “binds”.

B2: Bd0055, Bdellovibrio bacteriovorus histone (natural protein, Bdellovibrio bacteriovorus HD100, UniProt Q6MRM1 1-64, looked up)
chain: MAEVLVVTSKVKKLIKEKGQMNTSAETIDVLSKAIEQLCLKGVESAKADGRKTVMARDIVIDHL
notes: Bd0055, singlet histone fold protein of Bdellovibrio bacteriovorus HD100; the ORF was expressed; No tag is mentioned; purified by ion exchange, heparin and size exclusion; also called wildtype Bd0055; B. bacteriovorus histone; source: E. coli, codon-optimized ORF in a pET vector, purified (SP HP, Heparin HP, S75)
The stoichiometry N is a count of units in the complex or per binding partner. Turning to B2, in series [2], the “stoichiometry N” value is 2.
